From patent US20120213794A1 (published 2012)
Changes are numbered by the printed parent chain.

B1: AX137 IgG2 (antibody, V domains shown)
VH: EVQLLESGGGLVQPGGSLRLSCKASGYTFSSYGMYWVRQAPGKGLEWIGWIDPGSGGTKYNEKFKGKATISRDNSKNTLYLQMNSLRAEDTAVYYCARERYGYYFDYWGQGTLVTVSS
VL: EIVLTQSPATLSLSPGERATITCRASQYIGSYLNWYQQKPGQAPRLLIYDASNRATGIPARFSGSGSGTDFTLTISSLEPEDFAVYYCQAWDSSPPVVFGGGTKVEIK
B2: AX210 IgG2 (antibody, V domains shown)
VH: QVQLLESGGGLVQPGGSLRLSCKASGYTFSSYSIYWVRQAPGKGLEWIGWIDPGNGGTRYNQKFQSKATISRDNSKNTLYLQMNSLRAEDTAVYYCARARVGYSLDYWGQGTLVTVSS
VL: B1 VL with I29V, A90V
B3: AX211 IgG2 (antibody, V domains shown)
VH: B2 VH with S31R, Y32Q, S33G, I34F, Y35T, Q62E, Q65K, S66G, A99Y
VL: B1 VL with I29V, A90V
B4: AX114 Fab (Fab, V domains shown)
VH: B1 VH
VL: B1 VL with I29V, S31T, A90V, V98A
B5: AX132 Fab (Fab, V domains shown)
VH: B1 VH
VL: EIVLTQSPATLSLSPGERATITCRASQYVGSYLNWYQQKPGQAPRLLIYDASNRATGIPARFSGSGSGTDFTLTISSLEPEDFAVYYCQVWDSSPPVVFGGGTKVEIKR
B6: AX137 Fab (Fab, V domains shown)
VH: B1 VH
VL: B1 VL
B7: AX139 Fab (Fab, V domains shown)
VH: B1 VH
VL: B1 VL with I29V, S52A, A90V
B8: AX137 IgG2 (antibody, V domains shown)
VH: B1 VH
VL: B1 VL
B9: AX132 IgG2 (antibody)
heavy: EVQLLESGGGLVQPGGSLRLSCKASGYTFSSYGMYWVRQAPGKGLEWIGWIDPGSGGTKYNEKFKGKATISRDNSKNTLYLQMNSLRAEDTAVYYCARERYGYYFDYWGQGTLVTVSSASTKGPSVFPLAPCSRSTSESTAALGCLVKDYFPEPVTVSWNSGALTSGVHTFPAVLQSSGLYSLSSVVTVPSSNFGTQTYTCNVDHKPSNTKVDKTVERKCCVECPPCPAPPVAGPSVFLFPPKPKDTLMISRTPEVTCVVVDVSHEDPEVQFNWYVDGVEVHNAKTKPREEQFNSTFRVVSVLTVVHQDWLNGKEYKCKVSNKGLPAPIEKTISKTKGQPREPQVYTLPPSREEMTKNQVSLTCLVKGFYPSDIAVEWESNGQPENNYKTTPPMLDSDGSFFLYSKLTVDKSRWQQGNVFSCSVMHEALHNHYTQKSLSLSPGK
light: EIVLTQSPATLSLSPGERATITCRASQYVGSYLNWYQQKPGQAPRLLIYDASNRATGIPARFSGSGSGTDFTLTISSLEPEDFAVYYCQVWDSSPPVVFGGGTKVEIKRTVAAPSVFIFPPSDEQLKSGTASVVCLLNNFYPREAKVQWKVDNALQSGNSQESVTEQDSKDSTYSLSSTLTLSKADYEKHKVYACEVTHQGLSSPVTKSFNRGEC
B10: AX114 IgG2 (antibody, V domains shown)
VH: B1 VH
VL: B1 VL with I29V, S31T, A90V, V98A
B11: AX213 IgG2 (antibody, V domains shown)
VH: B1 VH with S31R, M34I, Y35N, W50R, S55N, K59R, E99A, R100N, Y101D, Y104S
VL: B5 VL
B12: AX210 IgG2 (antibody, V domains shown)
VH: B2 VH
VL: B1 VL with I29V, A90V
B13: AX211 IgG2 (antibody, V domains shown)
VH: B2 VH with S31R, Y32Q, S33G, I34F, Y35T, Q62E, Q65K, S66G, A99Y
VL: B1 VL with I29V, A90V
B14: AX212 IgG2 (antibody, V domains shown)
VH: B2 VH with I34F, Y35S, W50Y, N55S, R59K, S66G, A99Q
VL: B1 VL with I29V, A90V

These binders were tested against T1, rhesus PCSK9 (rhesus, UniProt A8T666 31-692, limits assumed) (assay: cell-based or functional assay).
T1 sequence (A8T666 31-692 limits assumed): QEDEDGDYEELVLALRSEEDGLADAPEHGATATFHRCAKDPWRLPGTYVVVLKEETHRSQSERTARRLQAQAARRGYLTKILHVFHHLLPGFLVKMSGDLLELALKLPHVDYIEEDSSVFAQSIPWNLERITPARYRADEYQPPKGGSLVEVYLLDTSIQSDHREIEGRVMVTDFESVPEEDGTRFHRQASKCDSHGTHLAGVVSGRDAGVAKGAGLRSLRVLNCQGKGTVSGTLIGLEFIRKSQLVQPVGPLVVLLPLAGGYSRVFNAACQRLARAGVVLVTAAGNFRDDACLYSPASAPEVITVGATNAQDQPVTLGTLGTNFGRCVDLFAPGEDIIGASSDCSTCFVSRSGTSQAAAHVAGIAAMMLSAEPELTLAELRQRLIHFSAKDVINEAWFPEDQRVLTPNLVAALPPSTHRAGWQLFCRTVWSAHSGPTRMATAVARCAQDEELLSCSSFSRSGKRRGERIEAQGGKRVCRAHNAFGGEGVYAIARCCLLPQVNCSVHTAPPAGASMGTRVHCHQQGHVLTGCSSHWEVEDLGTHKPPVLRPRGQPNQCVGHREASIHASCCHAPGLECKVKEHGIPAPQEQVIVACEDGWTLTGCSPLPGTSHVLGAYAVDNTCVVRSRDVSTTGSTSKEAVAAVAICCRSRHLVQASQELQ

Row | Binder | IgG2 IC50 (nM), inhibition of PCSK9 (LDL uptake assay)
1 | B1 | 10 nM
2 | B2 | 9.7 nM
3 | B3 | 4.4 nM

These binders were tested against T2, murine PCSK9 (mouse, UniProt Q80W65 35-694, limits assumed) (assay: cell-based or functional assay).
T2 sequence (Q80W65 35-694 limits assumed): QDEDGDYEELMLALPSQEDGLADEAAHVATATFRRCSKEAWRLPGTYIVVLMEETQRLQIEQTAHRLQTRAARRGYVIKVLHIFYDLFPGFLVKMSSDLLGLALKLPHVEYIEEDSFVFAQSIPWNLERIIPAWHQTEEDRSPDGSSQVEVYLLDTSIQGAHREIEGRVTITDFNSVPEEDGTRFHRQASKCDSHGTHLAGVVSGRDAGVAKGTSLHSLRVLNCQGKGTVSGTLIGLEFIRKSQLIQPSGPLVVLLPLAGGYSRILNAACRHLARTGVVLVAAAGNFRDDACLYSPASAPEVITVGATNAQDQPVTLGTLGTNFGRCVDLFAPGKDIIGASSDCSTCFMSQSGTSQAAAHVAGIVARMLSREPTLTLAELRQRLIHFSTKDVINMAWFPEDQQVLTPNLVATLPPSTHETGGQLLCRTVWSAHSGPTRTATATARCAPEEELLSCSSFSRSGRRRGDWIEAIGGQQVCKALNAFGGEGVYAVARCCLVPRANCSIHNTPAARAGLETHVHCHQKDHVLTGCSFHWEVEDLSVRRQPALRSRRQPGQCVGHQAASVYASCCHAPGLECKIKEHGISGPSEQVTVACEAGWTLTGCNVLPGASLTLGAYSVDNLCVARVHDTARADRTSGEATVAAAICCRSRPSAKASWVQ

Row | Binder | IgG2 IC50 (nM), inhibition of PCSK9 (LDL uptake assay)
4 | B1 | 5.3 nM
5 | B2 | 15.9 nM
6 | B3 | 11.1 nM

These binders were tested against T3, human PCSK9 (human, UniProt Q8NBP7 31-692) (assay: cell-based or functional assay).
T3 sequence (Q8NBP7 31-692 limits assumed): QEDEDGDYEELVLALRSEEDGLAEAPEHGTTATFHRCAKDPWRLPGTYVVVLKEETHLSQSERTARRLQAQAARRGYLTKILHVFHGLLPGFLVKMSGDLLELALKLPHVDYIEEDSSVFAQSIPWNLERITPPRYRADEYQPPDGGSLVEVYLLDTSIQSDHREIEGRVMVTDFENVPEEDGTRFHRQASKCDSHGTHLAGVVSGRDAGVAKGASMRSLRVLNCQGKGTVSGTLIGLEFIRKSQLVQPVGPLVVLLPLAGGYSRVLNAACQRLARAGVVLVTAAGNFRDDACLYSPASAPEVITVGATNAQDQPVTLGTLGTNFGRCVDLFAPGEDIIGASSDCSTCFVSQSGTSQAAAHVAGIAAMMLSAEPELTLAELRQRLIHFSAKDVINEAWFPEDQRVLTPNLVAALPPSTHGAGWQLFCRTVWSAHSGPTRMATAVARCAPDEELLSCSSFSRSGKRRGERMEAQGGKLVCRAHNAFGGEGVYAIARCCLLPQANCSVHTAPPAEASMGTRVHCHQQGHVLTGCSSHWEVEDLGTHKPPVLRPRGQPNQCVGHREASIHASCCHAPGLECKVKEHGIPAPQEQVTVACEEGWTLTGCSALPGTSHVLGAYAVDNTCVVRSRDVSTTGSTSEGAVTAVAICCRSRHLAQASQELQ

Row | Binder | IgG2 IC50 (nM), inhibition of PCSK9 (LDL uptake assay)
7 | B1 | 9.8 nM
8 | B2 | 6.5 nM
9 | B3 | 7.5 nM

Target: T1, rhesus PCSK9
Test: cell-based or functional assay
Remark: another data set of the same source

Row | Binder | Fab IC50 (nM), inhibition of PCSK9 on LDL uptake
10 | B4 | 194 nM

Target: T2, murine PCSK9
Test: cell-based or functional assay
Remark: another data set of the same source

Row | Binder | Fab IC50 (nM), inhibition of PCSK9 on LDL uptake
11 | B4 | 326 nM
12 | B5 | 26.9 nM
13 | B6 | 27.4 nM
14 | B7 | 22.9 nM

Target: T3, human PCSK9
Test: cell-based or functional assay
Remark: another data set of the same source

Row | Binder | Fab IC50 (nM), inhibition of PCSK9 on LDL uptake
15 | B4 | 179 nM
16 | B5 | 62.2 nM
17 | B6 | 74.4 nM
18 | B7 | 37.7 nM

What follows are binders tested against T4, Mouse PCSK9 (mouse, UniProt Q80W65 35-694, limits assumed) (assay: Biacore (SPR), IgG2 format).
T4 construct: Column head prints 'Mouse 9'; also called Mouse 9; mPCSK9
T4 sequence (Q80W65 35-694 limits assumed): as the sequence (Q80W65 35-694 limits assumed) above

Row | Binder | binding result
19 | B8 | no binding

What follows are binders tested against rat PCSK9 (rat, UniProt P59996 31-691, limits assumed) (assay: Biacore (SPR), IgG2 captured, PCSK9 as analyte).
Chain of rat PCSK9 (P59996 31-691 limits assumed): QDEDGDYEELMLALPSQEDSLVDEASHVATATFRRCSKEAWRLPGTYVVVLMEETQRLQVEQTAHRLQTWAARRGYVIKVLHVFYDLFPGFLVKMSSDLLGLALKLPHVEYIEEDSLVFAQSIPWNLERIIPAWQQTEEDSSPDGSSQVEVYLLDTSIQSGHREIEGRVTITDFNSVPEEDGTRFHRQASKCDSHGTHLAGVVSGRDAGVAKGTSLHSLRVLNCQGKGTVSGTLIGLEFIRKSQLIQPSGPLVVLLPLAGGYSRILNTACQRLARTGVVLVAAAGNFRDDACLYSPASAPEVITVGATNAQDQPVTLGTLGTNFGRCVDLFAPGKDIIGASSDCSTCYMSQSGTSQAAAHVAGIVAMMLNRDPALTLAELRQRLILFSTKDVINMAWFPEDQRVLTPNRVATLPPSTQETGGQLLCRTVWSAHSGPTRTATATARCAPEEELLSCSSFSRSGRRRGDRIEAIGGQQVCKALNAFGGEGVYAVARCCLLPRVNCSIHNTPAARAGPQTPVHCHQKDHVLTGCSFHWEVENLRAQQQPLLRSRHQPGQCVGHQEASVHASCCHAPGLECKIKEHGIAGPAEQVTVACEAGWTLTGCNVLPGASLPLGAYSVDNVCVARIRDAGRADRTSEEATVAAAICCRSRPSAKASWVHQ

Row | Binder | Kd
20 | B9 | ~100 nM

Each binder was assayed against T4, Mouse PCSK9 (assay: Biacore (SPR), IgG2 captured, PCSK9 as analyte).

Row | Binder | Kd
21 | B10 | 11.2 nM
22 | B9 | 2.76 nM
23 | B11 | 3.25 nM
24 | B12 | 3.6 nM
25 | B13 | 1.66 nM
26 | B14 | 2.74 nM

Each binder was assayed against T5, human PCSK9 (human, UniProt Q8NBP7 31-692) (assay: Biacore (SPR), IgG2 captured, PCSK9 as analyte).
T5 construct: also called hPCSK9
T5 sequence (Q8NBP7 31-692 limits assumed): as the sequence (Q8NBP7 31-692 limits assumed) above

Row | Binder | Kd
27 | B10 | 24 nM
28 | B8 | 9.98 nM
29 | B11 | 2.07 nM
30 | B12 | 2.64 nM
31 | B13 | 1.63 nM
32 | B14 | 2.12 nM

These binders were tested against T6, Rhesus PCSK9 (rhesus, UniProt A8T666 31-692, limits assumed) (assay: Biacore (SPR), IgG2 captured, PCSK9 as analyte).
T6 construct: also called rhPCSK9
T6 sequence (A8T666 31-692 limits assumed): as the sequence (A8T666 31-692 limits assumed) above

Row | Binder | Kd
33 | B10 | 11.6 nM
34 | B8 | 10 nM
35 | B11 | 1.89 nM
36 | B12 | 0.944 nM
37 | B13 | 0.493 nM
38 | B14 | 0.774 nM
